Experimental data as given in IntAct's records for PubMed 7486703.

B1: Proto-oncogene tyrosine-protein kinase LCK (Mus musculus), P06240 (parent)
chain: MGCVCSSNPEDDWMENIDVCENCHYPIVPLDSKISLPIRNGSEVRDPLVTYEGSLPPASPLQDNLVIALHSYEPSHDGDLGFEKGEQLRILEQSGEWWKAQSLTTGQEGFIPFNFVAKANSLEPEPWFFKNLSRKDAERQLLAPGNTHGSFLIRESESTAGSFSLSVRDFDQNQGEVVKHYKIRNLDNGGFYISPRITFPGLHDLVRHYTNASDGLCTKLSRPCQTQKPQKPWWEDEWEVPRETLKLVERLGAGQFGEVWMGYYNGHTKVAVKSLKQGSMSPDAFLAEANLMKQLQHPRLVRLYAVVTQEPIYIITEYMENGSLVDFLKTPSGIKLNVNKLLDMAAQIAEGMAFIEEQNYIHRDLRAANILVSDTLSCKIADFGLARLIEDNEYTAREGAKFPIKWTAPEAINYGTFTIKSDVWSFGILLTEIVTHGRIPYPGMTNPEVIQNLERGYRMVRPDNCPEELYHLMMLCWKERPEDRPTFDYLRSVLDDFFTATEGQYQPQP

Variants of: B1
Details: with cd4_mouse Cd4, P06332
cd4_mouse Cd4, P06332, sequence (P06332 whole entry): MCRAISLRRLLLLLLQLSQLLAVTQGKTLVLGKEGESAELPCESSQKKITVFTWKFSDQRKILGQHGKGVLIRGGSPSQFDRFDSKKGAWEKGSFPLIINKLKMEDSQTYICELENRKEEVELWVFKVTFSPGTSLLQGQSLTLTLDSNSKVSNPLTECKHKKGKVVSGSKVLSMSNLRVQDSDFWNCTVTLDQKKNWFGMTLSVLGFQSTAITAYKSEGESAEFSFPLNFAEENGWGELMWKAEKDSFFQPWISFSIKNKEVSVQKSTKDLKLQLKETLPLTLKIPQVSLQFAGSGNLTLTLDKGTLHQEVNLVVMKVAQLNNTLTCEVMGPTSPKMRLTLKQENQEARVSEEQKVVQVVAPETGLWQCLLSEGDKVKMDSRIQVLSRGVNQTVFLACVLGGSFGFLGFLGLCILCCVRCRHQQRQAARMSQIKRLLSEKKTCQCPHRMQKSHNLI

| Variant | effect of a mutation on the interaction |
| --- | --- |
| C20A | decreasing interaction |
